A protein production outcome set (Wang et al. 2014)
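Further: failed if final PepcDB status was selected cloned or expressed and not failed if soluble or beyond.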

Experiment: label from the status in PepcDB records
For “MFSFNMFDHPIPRVFQNRFSTQYRCFSVSMLAGPNDRSDVEKGGKIIMPPSALDQLSRLNITYPMLFKLTNKNSDRMTHCGVLEFVADEGICYLPHWMMQNLLLEEGGLVQVESVNLQVATYSKFQPQSPDFLDITNPKAVLENALRNFACLTTGDVIAINYNEKIYELRVMETKPDKAVSIIECDMNVDFDAPLGYKEPERQVQHEESTEGEADHSGYAGELGFRAFSGSGNRLDGKKKGVEPSPSPIKPGDIKRGIPNYEFKLGKITFIRNSRPLVKKVEEDEAGGRFVAFSGEGQSLRKKGRKP”, the protein production was “not failed”. With “MFSLNTLLNPPDNLSVGEIILISLILGMLHGVTPDEHTWPITFSYAIGKYSTKGGMKAGFLFSLGFTIQRAFLTTIGFLGLAAIYNQYNLDGPVYAVVGIVMAIAGSYILKGKYIHLPIDALFKSKQHTEEAGKVKDIPIKMTIVHGLVAGFGFGAYATIITFVLAPQLPSVVYAPLPGLFFGLGTMVMQIIFGMIFGNILRLKKMTEEQLSFIARKTAGRVLYYGGLVFLIVGLLIIVLPAIDNFAISTGNPIPNLDAINIGFLLVISVVGVIGISSILYGFREAKRLAKHI” the protein production was “failed”. In the case of “MFSPDSPISEFVSISTHVAPSVVKTTAGDYLLIWHLGGLPFVGRDEFELEQRHNTFNRLLQTLRAPDFANVAFWVHDVRRRRRIGAGGRFKQAFNQTLSDEYYTALSSQKIMQNELYFSMIYRPVVTGRRLVEKSANPDKIRAEEEQAVAKVVELATNVEAVLKDYAPYRLGMYEAKNGLVFSETLEFLGYLLNRIDEPVPVLPAPVPAYLPVSKHMFANKTGDFVIRTPDGINHFGAILNIKEYADGTYPGILNGLKYLDSEYVMTHSFSPVGRHDALKVLERTKGMMVSSGDKSSTQIRDLDVAMDDVASGNFVLGEYHFTLAVYADSQEKLARQIATTRAELSNAGFVSAKEDLAIASSFYSQLPGNWRFRTRIANLSSLNFLGLSPLHNFAQGKQHNNPWGDCVTTLQTTNGQPYYFNFHATHPSENSLGEKAIGNTMVIGKSGTGKTALINFLLSQVQKFDPIPTIFFFDKDRGAEIFVRACGGNYLALENGSPTGFNPFQCERNEANTQFLAELIKVLGGKAEYSAREEEDIYRAVEGMLDTPMHLRSMSNFRKSLPNMGDDGLYARLRRWTAGNSLGWVFDNPVDTIDLTRASIIGFDYTDVIDNAEVRVPVINYLLHRLEALIDGRPLIYVMDEFWKILDGKGGLKEFAKNKQKTIRKQNGLGIFATQSPEDALASDIAAALIEQTATMILLPNPNASRDDYMEGLKLTDAEYQVVVSLDERSRCFLVKQGHASAVCQLNLRGMDDALSVISSSTDNIEIMHQILAGKAGKLGVTVDQLTPEQWLEHHHHHH”, the protein production is reported as “failed”. With “MFTALLFTLGIAAATSFNASAIDNHNNKNKLPDIGISGYSVLSTDKELQIGKAMMRQLRASQPLIQDPVLIEYINHLGNSLVKNAQGVNYAFEFFLINNNELNAFAFFGGHVGIHSGLITTADTESELASVIAHEISHVTQRHLARRLESQSQTQGLTMAAMLSSVLITLVNPTVGIAALSASMAVTQQASINYTRGNEKEADRVGIALLASSNYDPQGAASFFSKMSTKYRYASKPPAMLLTHPLPESRIADARQRALNYPARPLPPSLGFELTKARLKSRYQGEAKSNISFFKLQLEKKRYAIKAAAQYGLALSYFENKQTSEALQLLEMLEKNDKDNLFYVDALTDVYIANNQANKAIKMLERLNLFMPNNQVVSLNYANALLSVKEYDLAAQILQDFLLVNPGNFIAYDILTTLYRTQEKTGLMHMSKAEVYALLGAYPKAVDELQTSYAFLDEQPLMQKRVKARILQLQEQENRLKRL” the protein production was “failed”. With “MFTFGFTNPEGTPDFSTPGLICIAILYIVGIYINFVFTIRRLHDRNNTGWLSLLMLVPVVNIGLAIYLFCAKGTEGPNDYGPKRPTPSWERVLGWIYIALIPLALIFGVIAVIMAPTYEGYVEKSESIVIGSPSQSE” the protein production was “failed”. For “MFTFLMTVRTSRRVAFHSGKLPVVIGIVSFFAPLFSLSFLNLFTDNIDPHYMSLDKALAERTVIVITQSQILLPSTTYILLELKIINSELGRLALSASAINDMLGIFAMIVATTQATYIHVSHAIAYRDLVAVIIFFLIVFFVFKPMVQWIIDRTPEDKPVEDIYIHAVILTAFASAAYFVFFNMKYVLGPLIIGIIIPEGPPLGSALEAKFERLTMNVFLPISITFSAMRCDGLRILSQFTDIYFNIFLTLLILVIKLVACLTLCLYYKLPRSESLAVSLILSYKSFVEFVLYEAVLEEKFISQATYAFLILYSLLSAGIVPMVVRSMYDPKRKYVNYQKRDILHLEANSGLRILTCLHKPENVSETIAFLQLFSSPIHDFPIAVTVLHLVKLVGQINPIIVSHDKKLKRLHKNSYIHTANLAFRQFMQESLESVTVTTFTAFSHENLMHEDICTLALDRTTSMIVVPSGRKWTVDGMFESDDLAARQLNQSLLDRAPCSIGILVDRGQFSRKSYVTSKNRYNIDVGVLFIGGKDDREALSLVKRMKYNPRVRVTVIRLIFDHEIESEWDYILDNEGLKDLKSTESNEDILYTERIVTSVVEVVKAVQLLAEEYDLMVVGRDHDMTSQDLSGLTEWVELPELGVIGDLLAARDLNSKVSVLVVQQQQQQT”, the protein production was “failed”. In the case of “MFTQRKKWLSGVAAGLLMAASVSASAEEKILHIYNWSDYIAPDTLANFQKETGIKVVYDVFDSNEVLEGKLMAGSTGFDLVVPSASFLERQLSAGVFKPLDKSKLPNEKNLDPELLALVSKHDPDNKYAIPYLWATTGIGYNVEKVKAVLGEDAPVNSWDLVLKPENLEKLKSCGVSFLDAPSEIFATVLNYLGKDPNSTLTADYTGSATDLLLKLRPNIRYFHSSQYINDLANGDICVAVGWAGDIMQASNRAKEAKNGVNVAYSIPKEGALAFFDVFAMPTDAKNQDEAYQFLNYLMRPDVIANISNHVFYANANQAATPLVNAEVRDNPGIYPPADVRAKMFTLKVQDPKIDRVITRAWTKVKSGK”, the protein production is reported as “failed”. For “MFTTVITPRVSETDGVGHINNTTVPVWFEAGRHEIFKLFTPDLSFKRWRMVIIRMEVDYVNQMYYGQDVTVYTGIERIGNTSLTIYEEIHQNGVVCAKGRSVYVNFNFDTGRPEPIPDDIRVKLREHVWQPGE”, the protein production was “not failed”. In the case of “MFVEVFIVGLLAGMSPGPDFFIVMKNSLGFGARVGILTSLGIASALIVHITYTVLGFAFLIETYPALFFTIQLLGAAYLIWLGFHAIRSSPPKKEEAEIEETQPIQSTKDSKSSIQGFKEGFITNLLNPKAALFFLSIFSQFITPQTADWVRWMYGLEVVVAVGLWFSFLAIFISYKHFRRFYQTHSYWFDRFLGAALLFFAIRIIIGAF”, the protein production is reported as “failed”. In the case of “MFVRRFEEVLALPTAMTALLGCQLLGELIVRALHLPIPGPVLGLLLLLAWLLLGTTVTLPVSSSLPEVARGLLNHMSLLFIPAGVGIILHGQTLADQWLPISVSLFGSTALALIATALTFRAVCKIMERSKAKKEGGR”, the protein production is reported as “failed”. For “MFVYAYILMLLLTVLMCINLFIDSFKCPVKIRRILRGLVFLIMLRYVTLLIMCLKKSITYIYFMRPIVLLDILYIPLVILIMIFVFTRSAKFNFVYAAISGIIFFSLYIFLNFKILKTANPFYSYSFGYLIDLKSYSVVVAVVKVMVLILMLMLCGYFLRKSNIRRAGFCFLMIVILVMLVENISIIIMPKVMPEYLFGEVLLLICLNYMVRLFKK”, the protein production was “failed”. With “MFYGRYDYPTGKFLWGNLRYQRVSEYNLQTFLNMKNSKLREEQIMSAKRDYYEVLGVSRDADKNTIKKAYRKLAKKYHPDTNQGNAQAAERFKEATEAYNILSDPEKKKMYDQFGHAAFDGSGAAGGAYGGAYSRNGGGTYQYAGPDGTFHEYHFEGNGDMDDFLKNIFGGSFGGFGGATRSSSKGSRSGFSGSGFGRSGFGGTGFSGSGFGGSGFSGSGFGESGSYGNYSQGGADVTAEITVGFDEAAFGCEKVIHLTENNGKAVGKALKVKIPAGIDTGKSIRLRGKGNPGINGGKAGDLLLKVKVASKPGYERKGMDVYTTVRVPFTTAVLGGEAKVETLHGNVLCKINPGTQSGTKIRLRGKGIVSMKDKNQHGDQYVTVQIDVPGNLSEEAKRKLREFEVACKKGQQGVA” the protein production was “failed”. In the case of “MFYKEENFKKTEIGEIPEDWEIVELKDVCKKIKAGGTPKTSVEEYYKNGTIPFVKIEDITNSNKYLTNTKIKITEEGLNNSNAWIVPKNSVLFAMYGSIGETAINKIEVATNQAILGIIPKDNILESEFLYYILAKNKNYYSKLGMQTTQKNLNAQIVKSFKIPLPPLEEQKQIAKILTKIDEGIEIIEKSINKLERIKKGLMHKLLTKGIGHSRFKKSEIGEIPEDWEVFEIKDIFEVKTGTTPSTKKSEYWENGEINWITPLDLSRLNEKIYIGSSERKVTKIALEKCNLNLIPKGSIIISTRAPVGYVAVLTVESTFNQGCKGLFQKNNDSVNTEFYAYYLKFKKNLLENLSGGSTFKELSKSMLENFKIPLPPLEEQKQIAKILSSVDKSIELKKQKKEKLQRMKKKIMELLLTGKVRVKT”, the protein production is reported as “not failed”. For “MFYTIEELVQQADRDYQGNIAELMIATETELSGRDRSEILELMTRNLEVMKDSVQTGLSPEKSPTGLTGGDAAKLDAYIKRGKTLADSAVLGAARNAMAVNESNAKMGLVCATPTAGSAGCLPAVLTVAIEKLGLNESQQLDFLFTAGAFGLVIANKASISGAEGGCQAEVGSASAMAAAAITMAAGGTPFQASQAICFVLKNMLGLICDPVAGLVEVPCVKRNAMGASFALVAADMALAGITSAIPVDQVVDAMYQVGSAMPTAFRETAEGGLAATPKGKALAKEIFG”, the protein production was “not failed”. With “MGAASCEDEELEFKLVFGEEKEAPPLGAGGLGEELDSEDAPPCCRLALGEPPPYGAAPIGIPRPPPPRPGMHSPPPRPAPSPGTWESQPARSVRLGGPGGGAGGAGGGRVLECPSIRITSISPTPEPPAALEDNPDAWGDGSPRDYPPPEGFGGYREAGAQGGGAFFSPSPGSSSLSSWSFFSDASDEAALYAACDEVESELNEAASRFGLGSPLPSPRASPRPWTPEDPWSLYGPSPGGRGPEDSWLLLSAPGPTPASPRPASPCGKRRYSSSGTPSSASPALSRRGSLGEEGSEPPPPPPLPLARDPGSPGPFDYVGAPPAESIPQKTRRTSSEQAVALPRSEEPASCNGKLPLGAEESVAPPGGSRKEVAGMDYLAVPSPLAWSKARIGGHSPIFRTSALPPLDWPLPSQYEQLELRIEVQPRAHHRAHYETEGSRGAVKAAPGGHPVVKLLGYSEKPLTLQMFIGTADERNLRPHAFYQVHRITGKMVATASYEAVVSGTKVLEMTLLPENNMAANIDCAGILKLRNSDIELRKGETDIGRKNTRVRLVFRVHVPQGGGKVVSVQAASVPIECSQRSAQELPQVEAYSPSACSVRGGEELVLTGSNFLPDSKVVFIERGPDGKLQWEEEATVNRLQSNEVTLTLTVPEYSNKRVSRPVQVYFYVSNGRRKRSPTQSFRFLPVICKEEPLPDSSLRGFPSASATPFGTDMDFSPPRPPYPSYPHEDPACETPYLSEGFGYGMPPLYPQTGPPPSYRPGLRMFPETRGTT” the protein production was “not failed”. For “MGAATRVAPMTAAASSTKAWLMAARPQTLPAGAAPVIVGTGLAVYHGVFAPLPALFALFGALLLQIGTNFANDYYDAVRGADTEDRDGFTRVTAGGLIEPAAVKRAMYATFGLSMVIGLYLVAVGGVPILVVGLASIVAGITYSGGPLPYGYRGLGDLFVFVFFGLVAVAGTYYVQAAAHGGWFPLWIPEGTLPAAAVVAGLPAAGFSTAILVVNNIRDRETDAEAGKHTLAVILGYRLSRIEWSLMAGLGYAIPVVFWLDGYPATVLLPLVTAPLAIAIGRTVWNRTDGEALNPALQRTGKLLFAHSVCFALGFAAPAVI”, the protein production was “failed”. In the case of “MGALLPRGQASRPRTRHGRSPQNDRRQEARDVTGRHLAMVQRPGKMARWVLCCECLRRPMDLTLRLATALLTASLLLPLRPAQAQLAGHGGPVRAIAVSSDGKTVLSGSFDTAAIRWSLATESAEQVLRFHSGAVNAAAFLGDGRMATAGADGQIAIWTAGGLQPDQVLEGHTGPIVGLVVSPDTSKLASASWDHTVRISSLSDGGTRVLQGHSQSVNGVAFAPDGKSLVSVGYDLTVRIWPLAGGSPEIVVMPAPLNAVAISPDGEIVTGAADGKLRMMTADGKENGEVMAGARPIVALAISQDGALIATGAIDGTVAIVDRKARSVMRTLAGLGAPVWSVAFLPDGATLLTGGADGKIRRWNALTGAAIGSNVLGTPADPLAAYVGDHGAEMFRACVACHTLSENEVQRAGPTLAGLFGRKIASLPGYRFTDALKAMDIVWTPETVSKLFEIGPNAYTPGTKMPEQRIGSAEDRRALTDFLARATSK”, the protein production is reported as “failed”.
